Test results as given in PMC10003650, “Characterization of a New Glucose-Tolerant GH1 β-Glycosidase from Aspergillus fumigatus with Transglycosylation Activity” (International Journal of Molecular Sciences, 2023).

How the values were obtained:
purified protein = substrate: O=[N+]([O-])c1ccc(O[C@@H]2O[C@H](CO)[C@@H](O)[C@H](O)[C@H]2O)cc1; test: purified protein; format: biochemical, Aspergillus fumigatus; details: 50 mM sodium phosphate pH 6.0, 40 °C, 30 min
[1] = substrate: OCc1ccccc1O[C@@H]1O[C@H](CO)[C@@H](O)[C@H](O)[C@H]1O; test: DNS method for released glucose, non-linear regression; format: biochemical, Aspergillus fumigatus; details: 50 mM sodium phosphate pH 6.0, 40 °C, 30 min
From the text: DNS method for released glucose, non-linear regression on AfBgl1.3

B1: AfBgl1.3 (Aspergillus fumigatus Af293) (protein)
chain: MGSTTTSTLPPDFLWGFATASYQIEGAVDEDGRGPSIWDTFCKIPGKIAGGASGEVACDSYHRTHEDIALLKECGAKAYRFSISWSRVIPLGGRNDPVNEKGLQHYVKFVDDLLAAGITPLVTLFHWDLPDALDKRYGGLLNKEEFVADFANYARVMFNAFGSKVKYWITFNEPWCSSVLGYNVGQFAPGRTSDRTKSPVGDGSREPWIVGHNILVAHGAAVKIYREEFKPRDGGEIGITLNGDWAEPWDPENPADVEACDRKIEFAISWFADPIYHGKYPDSMVKQLGDRLPTWTPEDIALVHGSNDFYGMNHYCANYIKAKTGEPDPNDVAGNLEILLQNKNGEWIGPETQSPWLRPHPIGFRKLLKWLSDRYNQPKIYVTENGTSLKGESDLPVDQIVNDDFRVQYFREYIAAMADAYTLDGVNVRAYMAWSLMDNFEWAEGYETRFGVTFVDYANNQRRIPKKSAKVLREIFDQYIEKA
- Km (purified protein): 7.6 ± 0.8 mM
- Vmax (purified protein): 656 µmol/min/mg
- kcat (purified protein): 596 s⁻¹
- kcat/Km (purified protein): 78000 M⁻¹ s⁻¹
- Km [1]: 17.6 ± 1.9 mM
- Vmax [1]: 706 µmol/min/mg
- kcat [1]: 622 s⁻¹
- kcat/Km [1]: 35000 M⁻¹ s⁻¹
